{"source": "paper PMC11016754", "about": "“Allosteric Probe-Based Colorimetric Assay for Direct Identification and Sensitive Analysis of Methicillin Resistance of Staphylococcus aureus”", "target": "T1, PBP2a (penicillin binding protein 2a) (Staphylococcus aureus …, UniProt Q53707 25-668)", "T1 sequence": "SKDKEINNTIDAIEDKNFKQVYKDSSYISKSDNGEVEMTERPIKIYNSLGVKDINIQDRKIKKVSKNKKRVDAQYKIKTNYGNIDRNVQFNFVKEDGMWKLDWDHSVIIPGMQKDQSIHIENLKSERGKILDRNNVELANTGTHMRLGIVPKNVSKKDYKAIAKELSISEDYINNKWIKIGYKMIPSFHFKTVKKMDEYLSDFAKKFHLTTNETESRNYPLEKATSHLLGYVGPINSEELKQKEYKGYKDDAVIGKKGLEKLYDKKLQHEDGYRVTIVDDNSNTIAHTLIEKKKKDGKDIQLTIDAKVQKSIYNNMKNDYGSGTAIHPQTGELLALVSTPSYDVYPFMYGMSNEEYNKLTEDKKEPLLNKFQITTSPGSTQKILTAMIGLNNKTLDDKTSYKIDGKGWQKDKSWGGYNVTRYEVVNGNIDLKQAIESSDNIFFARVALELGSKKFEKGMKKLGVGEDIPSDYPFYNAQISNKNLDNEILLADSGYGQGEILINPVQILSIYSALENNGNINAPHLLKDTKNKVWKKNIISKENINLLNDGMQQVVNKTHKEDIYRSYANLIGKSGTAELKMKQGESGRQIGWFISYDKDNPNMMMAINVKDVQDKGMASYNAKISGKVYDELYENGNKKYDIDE", "assay": "fluorescence dequenching (FAM/BHQ hairpin opening); Binding-assay buffer not stated; amplification assay in PBS, room temperature, 60 min, 100 nM H1", "details": "label: FAM and BHQ at the two termini", "data": [{"binder": "H1 probe (allosteric hairpin with PBP2a aptamer section d) (structured_DNA) DNA: CACCCCACCTCGCTCCCGTGACACTAATGCTATTTTTTTTTATTTCTTTATCCTCAGCTTAGTGTCACTAAGC", "values": [{"measurement": "binding result", "value": "binds"}]}]}
